From US20220119534A1 (DRAGONFLY THERAPEUTICS, published 2022)
Values joined by “and” are separate entries in the source; they are usually repeats but may differ in a detail not shown here. Identical values can stand only once.

Legend:
mFc-cNKG2D = target: T1, mFc-cNKG2D (cynomolgus monkey, UniProt P61252 73-216); test: SPR Biacore 37 C; mFc-tagged cyno NKG2D dimer, TriNKET as analyte; kinetics fit
T1 construct: extracellular domain; Made in house (Dragonfly Tx); also called recombinant cyno NKG2D extracellular domain (ECD); mFc-tagged cyno NKG2D dimer; not shown: mouse Fc tag
T1 sequence (looked up): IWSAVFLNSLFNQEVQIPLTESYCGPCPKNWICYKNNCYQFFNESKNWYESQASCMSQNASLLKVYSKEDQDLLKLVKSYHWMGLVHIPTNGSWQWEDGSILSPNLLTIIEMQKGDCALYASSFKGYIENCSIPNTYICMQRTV

mFc-hNKG2D = target: T2, mFc-hNKG2D (human, UniProt P26718 73-216); test: SPR Biacore 8K 37 C; mFc-hNKG2D captured on anti-mFc chip, TriNKET as analyte; 1:1 kinetic fit; control sample, n=3
T2 construct: extracellular domain; Made in house (Dragonfly Tx); the order of tag and ECD follows the name mFc-hNKG2D; also called mFc-tagged human NKG2D; not shown: mouse Fc tag
T2 sequence (looked up): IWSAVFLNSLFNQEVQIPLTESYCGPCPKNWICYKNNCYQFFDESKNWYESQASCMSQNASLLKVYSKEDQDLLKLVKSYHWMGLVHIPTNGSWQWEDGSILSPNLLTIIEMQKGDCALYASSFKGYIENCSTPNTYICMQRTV

- Kd (mFc-cNKG2D): 831 nM and 825 nM and 931 nM and 769 nM
- Kd (mFc-hNKG2D): 661 nM
- koff (mFc-hNKG2D): 0.139 s⁻¹
- kon (mFc-hNKG2D): 211000 M⁻¹ s⁻¹
B1: F3'-1602 TriNKET (bispecific antibody, human IgG1, kappa)
chain: QLQLQESGPGLVKPSETLSLTCTVSGFSLTNYGLHWIRQPPGKCLEWIGVIWSGGKTDYNPSLKSRVTISKDTSKNQFSLKLSSVQAADTAVYYCAKYDYDDSLDYWGQGTLVTVSSGGGGSGGGGSGGGGSGGGGSDIQMTQSPSSLSASVGDRVTITCHASQNINFWLSWYQQKPGKAPKLLIYEASNLHTGVPSRFSGSGSGTRFTLTISSLQPEDIATYYCQQSHSYPLTFGCGTKLEIKGSDKTHTCPPCPAPELLGGPSVFLFPPKPKDTLMISRTPEVTCVVVDVSHEDPEVKFNWYVDGVEVHNAKTKPREEQYNSTYRVVSVLTVLHQDWLNGKEYKCKVSNKALPAPIEKTISKAKGQPREPRVYTLPPCRDELTKNQVSLTCLVKGFYPSDIAVEWESNGQPENNYKTTPPVLVSDGSFTLYSKLTVDKSRWQQGNVFSCSVMHEALHNHYTQKSLSLSPG
heavy: EVQLVESGGGLVKPGGSLRLSCAASGFTFSSYSMNWVRQAPGKGLEWVSSISSSSSYIYYADSVKGRFTISRDNAKNSLYLQMNSLRAEDTAVYYCARGAPIGAAAGWFDPWGQGTLVTVSSASTKGPSVFPLAPSSKSTSGGTAALGCLVKDYFPEPVTVSWNSGALTSGVHTFPAVLQSSGLYSLSSVVTVPSSSLGTQTYICNVNHKPSNTKVDKKVEPKSCDKTHTCPPCPAPELLGGPSVFLFPPKPKDTLMISRTPEVTCVVVDVSHEDPEVKFNWYVDGVEVHNAKTKPREEQYNSTYRVVSVLTVLHQDWLNGKEYKCKVSNKALPAPIEKTISKAKGQPREPQVCTLPPSRDELTENQVSLTCLVKGFYPSDIAVEWESNGQPENNYKTTPPVLDSDGSFFLYSWLTVDKSRWQQGNVFSCSVMHEALHNHYTQKSLSLSPG
light: DIQMTQSPSSVSASVGDRVTITCRASQGISSWLAWYQQKPGKAPKLLIYAASSLQSGVPSRFSGSGSGTDFTLTISSLQPEDFATYYCQQGVSFPRTFGGGTKVEIKRTVAAPSVFIFPPSDEQLKSGTASVVCLLNNFYPREAKVQWKVDNALQSGNSQESVTEQDSKDSTYSLSSTLTLSKADYEKHKVYACEVTHQGLSSPVTKSFNRGEC
notes: Trispecific F3' format: CLEC12A scFv-Fc paired with NKG2D Fab-Fc; Stressed and control samples of the stability studies are the same molecule; also called AB0237
